Test results from the supplement of paper PMC7877785.
± gives the uncertainty stated by the source.

Test: self-splicing fitness, log relative to wild type (ln ratio); higher = more splicing; Tetrahymena group I intron in knt gene, E. coli kanamycin selection, DiMSum; sequences stand for … in CUCUCU…GGAGGGAAAAGUUAUCAGGCAUGCACCUGGUAGCUAGUCUUUAAACCAAUAGAUUGCAUCGGUUUAAAAGGCAAGACCGUCAAAUUGCGGGAAAGGGGUCAACAGCCGUUCAGUACCAAGUCUCAGGGGAAACUUUGAGAUGGCCUUGCAAAGGGUAUGGUAAUAAGCUGACGGACAUGGUCCUAACCACGCAGCCAAGUCCUAAGUCAACAGAUCUUCUGUUGAUAUGGAUGCAGUUCACAGACUAAAUGUCGGUCGGGGAAGAUGUAUUCUUCUCAUAAGAUAUAGUCGGACCUCUCCUUAAUGGGAGCUAGCGGAUGAAGUGAUGCAACACUGGAGCCGCUGGGAACUAAUUUGUAUGCGAAAGUAUAUUGAUUAGUUUUGGAGUACUCGUGGUCG
Method in brief: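 Pooled colonies went to amplicon sequencing on an Illumina HiSeq 2500 after six replicate transformations. The plates were LB agar with 100 μg/mL carbenicillin, 50 μM IPTG and 0.2% rhamnose, with or without 25 μg/mL kanamycin, incubated overnight at 37°C or 30°C. The E. coli BL21(DE3) library had all eight P1ex-region intron nucleotides randomised, the intron placed in the knt kanamycin-resistance gene on pET-22b(+). DiMSum fitness is the error-weighted combination of replicate fold changes, kanamycin against none, normalised to wild type.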

Sequence	self-splicing fitness (ln) (30 °C)	self-splicing fitness (ln) (37 °C)
AUAUAGCAAUAUUACGGCGG	-1.04 ± 0.17	-0.534 ± 0.26
AUACAGCAAUAUUACGAUCG	-0.733 ± 0.071	-0.839 ± 0.097
CUAGAGCAAUAUUACGGCUC	-2.94 ± 0.25	
GUGUAGCAAUAUUACGUUAA	-2.21 ± 0.2	-1.8 ± 0.16
CCGAAGCAAUAUUACGGGAA	-2.26 ± 0.25	-1.73 ± 0.32
UCCUAGCAAUAUUACGCGGC	-3.42 ± 0.44	
UAAUAGCAAUAUUACGUAGU	-3.82 ± 0.19	-2.44 ± 0.23
UCUCAGCAAUAUUACGACGC		0.221 ± 0.23
AAACAGCAAUAUUACGCCAC		-1.77 ± 0.31
UACAAGCAAUAUUACGUGCC	-2.49 ± 0.15	-1.53 ± 0.14
CUUAAGCAAUAUUACGUACG	-0.58 ± 0.076	-0.451 ± 0.079
AUCUAGCAAUAUUACGCAGG	-2.97 ± 0.3	-1.07 ± 0.18
AUCUAGCAAUAUUACGCUCA	-0.577 ± 0.17	-0.0187 ± 0.2
AGGCAGCAAUAUUACGUGCC	-2.9 ± 0.26	-2.73 ± 0.31
CACCAGCAAUAUUACGGAGC	-2.79 ± 0.13	-1.58 ± 0.13
CAUCAGCAAUAUUACGGCGC	-2.95 ± 0.13	-0.694 ± 0.15
CUGUAGCAAUAUUACGUCAG	-3.53 ± 0.23	-2.88 ± 0.34
GGGAAGCAAUAUUACGGCCA	-0.752 ± 0.14	-0.611 ± 0.19
UAUCAGCAAUAUUACGGGGG	-1.51 ± 0.092	-1.11 ± 0.14
ACCUAGCAAUAUUACGUGUA	-2.84 ± 0.099	-1.45 ± 0.075
UUACAGCAAUAUUACGGAGC	-3.42 ± 0.38	-1.79 ± 0.35
CACCAGCAAUAUUACGUCAA	-3.64 ± 0.42	-2.31 ± 0.19
UGAAAGCAAUAUUACGAGCG	0.46 ± 0.072	-0.171 ± 0.085
AUCCAGCAAUAUUACGUAUC	-3.8 ± 0.27	-2.26 ± 0.2
UAACAGCAAUAUUACGGACC	-3.44 ± 0.43	-1.98 ± 0.28

Sequence	self-splicing fitness (ln) (30 °C)	self-splicing fitness (ln) (37 °C)
GUUGAGCAAUAUUACGCCUG		-2.05 ± 0.35
UAGCAGCAAUAUUACGUCUC	-1.96 ± 0.17	-0.915 ± 0.15
CGGAAGCAAUAUUACGAGCC	-2.13 ± 0.23	-0.454 ± 0.22
UGGCAGCAAUAUUACGUAGU	-2.99 ± 0.15	-1.8 ± 0.2
CGCCAGCAAUAUUACGUAUG	-0.516 ± 0.055	-0.0225 ± 0.074
GAACAGCAAUAUUACGUUAG	-0.954 ± 0.047	-0.969 ± 0.067
UGCUAGCAAUAUUACGGCCA	-0.186 ± 0.11	-0.178 ± 0.15
UUUGAGCAAUAUUACGCCUU		-2.2 ± 0.45
AGUCAGCAAUAUUACGAUGC	-1.04 ± 0.097	-0.00334 ± 0.11
AUAUAGCAAUAUUACGGUAG	-3.13 ± 0.18	-1.74 ± 0.21
CAGCAGCAAUAUUACGAUUA	-1.77 ± 0.1	-1 ± 0.11
UCCGAGCAAUAUUACGUUUC	-3.39 ± 0.22	-2.11 ± 0.34
CUCAAGCAAUAUUACGGACU	-2.42 ± 0.15	-1.36 ± 0.2
UCGCAGCAAUAUUACGCUGU	-3.13 ± 0.14	-3.02 ± 0.19
GUGAAGCAAUAUUACGGCCC	-0.145 ± 0.18	
GUUCAGCAAUAUUACGGCGU	-0.298 ± 0.085	0.138 ± 0.11
AUUGAGCAAUAUUACGGCGA	-1.96 ± 0.16	-0.878 ± 0.15
AAACAGCAAUAUUACGAGAU	-3.64 ± 0.2	-2 ± 0.15
GAUCAGCAAUAUUACGAGCC	-0.966 ± 0.074	-1.1 ± 0.093
GCAUAGCAAUAUUACGGCCG	-2.37 ± 0.36	-0.909 ± 0.39
GUUAAGCAAUAUUACGCUGC	-3.43 ± 0.33	-1.49 ± 0.32
UACGAGCAAUAUUACGUCGA	-2.65 ± 0.42	-1.45 ± 0.25
AGCGAGCAAUAUUACGCAGU	-4.48 ± 0.28	-2.78 ± 0.25
CCUGAGCAAUAUUACGCGAG	-4.35 ± 0.42	-2.63 ± 0.28
GGGGAGCAAUAUUACGGGUU	-2.84 ± 0.22	-2.2 ± 0.39

Sequence	self-splicing fitness (ln) (30 °C)	self-splicing fitness (ln) (37 °C)
UCCCAGCAAUAUUACGGCAU	-2.77 ± 0.11	-1.01 ± 0.11
GCCUAGCAAUAUUACGUUGA	-1.54 ± 0.11	-0.577 ± 0.1
AUCAAGCAAUAUUACGCCGA	-1.02 ± 0.14	-0.375 ± 0.17
AAUGAGCAAUAUUACGAGCU	-3.15 ± 0.24	-3.57 ± 0.42
CCGAAGCAAUAUUACGAUGC	-4.36 ± 0.26	-2.34 ± 0.23
UUCGAGCAAUAUUACGCAAA	-0.773 ± 0.28	-1.92 ± 0.26
CAUUAGCAAUAUUACGCAGA		-1.78 ± 0.31
CAACAGCAAUAUUACGUACG	-0.0141 ± 0.079	0.194 ± 0.11
AAACAGCAAUAUUACGGGUC	-3.47 ± 0.16	-3.08 ± 0.22
CCUCAGCAAUAUUACGGACU	-3.93 ± 0.33	-1.79 ± 0.24
GCAUAGCAAUAUUACGAUUG	-2.38 ± 0.14	-1.67 ± 0.15
UAAAAGCAAUAUUACGGCGU	-1.12 ± 0.084	-0.0589 ± 0.1
UCGAAGCAAUAUUACGGCAG	-2.11 ± 0.097	-0.963 ± 0.11
CGGCAGCAAUAUUACGACCG	-3.76 ± 0.31	
AGAUAGCAAUAUUACGGGAG	-2.43 ± 0.26	-1.95 ± 0.23
UUCAAGCAAUAUUACGUAUG	-3.21 ± 0.22	-1.64 ± 0.17
GCUAAGCAAUAUUACGGAUU	-1.14 ± 0.068	-1.12 ± 0.092
UUGAAGCAAUAUUACGACCC	-3.15 ± 0.28	-0.772 ± 0.17
UGUUAGCAAUAUUACGAUAG	-2.07 ± 0.26	0.173 ± 0.17
UAUAAGCAAUAUUACGUGUA	-1.48 ± 0.1	-0.896 ± 0.1
GCACAGCAAUAUUACGAUAU	-0.993 ± 0.056	-0.54 ± 0.071
AUGGAGCAAUAUUACGAAAA		-0.761 ± 0.38
UUGUAGCAAUAUUACGCAGU		-2.1 ± 0.3
CUAGAGCAAUAUUACGUGCU	-3.54 ± 0.28	-0.493 ± 0.15
AAUUAGCAAUAUUACGAGGC	-2.7 ± 0.32	-2.6 ± 0.44

Sequence	self-splicing fitness (ln) (30 °C)	self-splicing fitness (ln) (37 °C)
UGAGAGCAAUAUUACGACUC	-2.96 ± 0.47	-2.73 ± 0.45
GUUUAGCAAUAUUACGGCCC	-1.66 ± 0.29	
GACUAGCAAUAUUACGGUAU	-1.3 ± 0.074	-0.543 ± 0.092
CAGGAGCAAUAUUACGCCAG	-2.75 ± 0.32	
GCGAAGCAAUAUUACGUAAA	-1.85 ± 0.16	-2.12 ± 0.23
GCAGAGCAAUAUUACGUGCA	-3.08 ± 0.29	-2.21 ± 0.23
ACGGAGCAAUAUUACGGAUA	-3.27 ± 0.33	-2.61 ± 0.42
ACCUAGCAAUAUUACGACUC	-0.748 ± 0.088	-0.405 ± 0.098
UACUAGCAAUAUUACGCACG	-0.877 ± 0.089	-0.992 ± 0.11
CCAGAGCAAUAUUACGCGCA	-3.16 ± 0.25	
UGCUAGCAAUAUUACGGUGG	-1.94 ± 0.066	-1.33 ± 0.086
CUAAAGCAAUAUUACGGCUG	0.0357 ± 0.069	-0.0492 ± 0.089
AUUGAGCAAUAUUACGUCAA	-3.05 ± 0.26	-2.6 ± 0.28
GGCCAGCAAUAUUACGUCAU	-1.7 ± 0.063	-1.27 ± 0.08
UGGCAGCAAUAUUACGCUGA	-2.79 ± 0.21	-1.17 ± 0.12
AGACAGCAAUAUUACGUCGG	-2.44 ± 0.15	-0.528 ± 0.15
CGCGAGCAAUAUUACGCGUU	-3.07 ± 0.25	-2.74 ± 0.34
GUGGAGCAAUAUUACGAAGG	-2.69 ± 0.27	-2 ± 0.4
GUGAAGCAAUAUUACGUCGC	-2.77 ± 0.25	-1.75 ± 0.18
GAACAGCAAUAUUACGCGGA	-1.94 ± 0.082	-0.737 ± 0.075
GGUAAGCAAUAUUACGCGCC	-2.99 ± 0.33	-1.48 ± 0.29
CGGCAGCAAUAUUACGAGGU	-3.26 ± 0.19	-1.83 ± 0.15
CCCCAGCAAUAUUACGUUGA	-4.14 ± 0.13	-2.79 ± 0.12
UAGAAGCAAUAUUACGAAUG	-0.651 ± 0.071	-0.298 ± 0.09
